Assay: soluble on expression in E. coli; label from the status in PepcDB or PDB records

| Sequence | soluble on expression in E. coli |
| --- | --- |
| GMATSTDRTQEIQKLHELIKNIDYGMFTTVDDDGSLHSYPMSKSGDINSEATLWFFTYAGSHKVTEIEHHEQVNVSFSSPEQQRYVSISGTSQLVKDRNKMRELWKPELQTWFPKGLDEPDIALLKVNINQVNYWDSTSSFKPQTISF | soluble |
| MSADLKQSRLADWRQRALAFEREVGKAVIGLERPIRHILIAVFARGHVMLEGDVGVGKTTLLRAVARCLGGAYERVEGTIDLMPNDLVYHTYINELGKPQVEPGPVLKHGEELSVFFFNEVNRARPQVHSLLLRIMAEHAVSAFNREHFFPYLQVFADRNRVEKEETFEIPSAARDRFMMELHVETPADPALRRALMFDPKFHDVDRLLDTLTPGILPYREIPQIAPVIQQSVTASETLQQYALDLWEATRRPADYGVKLEGIDMDRLILAGASARGVSMMMRAARVAAWLDGRDYLVPEDIHDVFRETIGHRVFFNPVYELRRTALIDELLHAIRQKVAAPLEHHHHHH | soluble |
| MLIVKTLVIIPTYNEAENIRPLVEDILDRYPEGLELLVIDDSSPDGTAGIVKAIMKNEPRVMLLSRPSKLGLGTAYLTGFRYALERGYERVIEMDADFSHDPASIASLIKAMDGADMVIGSRYMNNTVNVVNWPLSRLILSKSASIYSRWITGMPVSDPTSGFKCISAKALRFIALDRVRSQGYSFQIEIDFRVWKKNLVIHEVPIIFVDRSVGKSKMTRKNIVEAVWMVWWLKFLSIIGRLLEHHHHHH | not soluble |
| SASLDRVKVLVLGDSGVGKSSLVHLLCQNQVLGNPSWTVGCSVDVRVHDYREGTPEEKAFYIELWDVGGSVGSASSVKSTRAVFYNSVNGIILVHDLTNKKSSQNLYRWSLEALSKDSSPTGIIVSNGDYDREQFAENAVPLLLIGTKFDQIPENKRNDVLTRTAFLSEDFNAEEINLDCTNPRYLAAGSSNAVKLSRFFDKVIEKRYFTRDPSQMQSFTDRRRFNFKSLHSD | soluble |
| MGRTTTPRDGDAALPPEYHGLHVAPVQPGHEAIEWLTPTNRSDRVRVVQHTCECRTTIYELCRSGGLMFIRRTVRTAKGARVHETERLITARMERLWMRLLLGQAR | not soluble |
| MSLFRGFGRSTLAKIGSTEISTEQFRQTYNDRLQQIGRQFGRPLTPDQARAIGIDRQVLQQTIAEAALDEDARRLGLGQSDADTMKSILEDPNFKGANGQFDANRFQQLIRQFGFTEQRYLAEQRRVALRRQIAGSLTAGLEAPKTLMQALSQFQSEERAIDYLKLTDAQAGTIAAPSPADLTAFYDSHKAQFRAPEYRKISFLVVTPESIAKWAEVSDADAQKLFEQRKDKLSTPEKRQLLQIVFPSVEEAQAGRAKIASGTSFADLAKERGVKPADLDLGLVSQSEMLDQKVAAAAFALPLNEVSQPVQGQFGTVLLEVTKIETEGHHHHHH | soluble |
| MPTVSVKWQKKVLDGIEIDVSLPPYVFKAQLYDLTGVPPERQKIMVKGGLLKDDGDWAAIGVKDGQKLMMMGTADEIVKAPEKAIVFAEDLPEEALATNLGYSAGLVNLGNTCYMNSTVQCLKSVPELKSALSNYSLAARSNDVDQTSHMLTVATRELFGELDRSVLRKKYPQFSQLQNGMHMQQDAEECWTQLLYTLSQSLKAPTSSEGADAVKALFGVNLQSRIKLGVLDNVTDSTVISKCTLHCQESGEESSETESVYSLKCHISHEVNHLHEGLKHGLKGELEKTSPALGRTALYVKESLIDSLPRYLTVQFVRFFWKRESNQKAKILRKVDYPLVLDIFDLCSEDLRKKLEAPRQKLREEEGKKLGLQTSAKSGSKDSDVKMTDAEASANGSGESSTVNPQEGTSSEKETHMTGIYDLVAVLTHKGRSADSGHYVAWVKQESGKWIQYDDDNPSMQREEDITKLSGGGDWHMAYITMYKARFVSM | soluble |
| MSNSFGIKVIACDKIFYNGRCTQLVLPLRDGSKAIQAHHENMVFSVEVGEIKITKEDGSTIVGVTGTGFAQMVNNRATVIVDTCEYPEEIDLRRAEEAKERAEEQLRQKQSIAEYHISKASLARAMARLKEGSGKGTPYGY | not soluble |
| MRDLKIVNGDLSFIDYGILLVEGDLELAQSVFMILSIRLEEFKLDTSVGLESDNMFGKNYNEDYLKQDITEAILDQEPRINSIENIEIVRNNRQLNITVEMLSTLGDEVEVVIRA | not soluble |
| SDALSWGHGPRLFEVFLEPTCPFSVKAFFKLDDLLAQAGEDNVTVRIRLQSQPWHMFSGVIVRCILAAATLEGGKESAKAVMTAVASHREEFEFEHHAGGPNLDATPNDIIARIERYSGLALAEAFANPELEHAVKWHTKYARQNGIHVSPTFMINGLVQPGMSSGDPVSKWVSDIG | not soluble |
| MERSQCGSRDRGVSGRPHLAPGLVVAAPPPPSPALPVPSGMQCARCRNHGVVSALKGHKRFCRWRDCACAKCTLIAERQRVMAAQVALRRQQAQEESEARGLQRLLCSGLSWPPGGRASGGGGRAENPQSTGGPAAGAALGLGALRQASGSATPAFEVFQQDYPEEKQEQKESKCESCQNGQEELISKSHQLYLGSSSRSNGVIGKQSIGSSISEYSNKPDSILSPHPGEQSGGEESPRSLSSSDLESGNESEWVKDLTATKASLPTVSSRPRDPLDILTKIFPNYRRSRLEGILRFCKGDVVQAIEQVLNGKEHKPDNRNLANSEELENTAFQRASSFSLAGIGFGTLGNKSAFSPLQTTSASYGGDSSLYGVNPRVGISPLRLAYSSAGRGLSGFMSPYLTPGLVPTLPFRPALDYAFSGMIRDSSYLSSKDSITCGRLYFRPNQDNP | soluble |
| AALPDSVDWREKGCVTEVKYQGSCGASWAFSAVGALEAQLKLKTGKLVSLSAQNLVDCSTEKYGNKGCNGGFMTTAFQYIIDNKGIDSDASYPYKAMDQKCQYDSKYRAATCSKYTELPYGREDVLKEAVANKGPVSVGVDARHPSFFLYRSGVYYEPSCTQNVNHGVLVVGYGDLNGKEYWLVKNSWGHNFGEEGYIRMARNKGNHCGIASFPSYPEILQG | soluble |
| GSFTMPGLVDSNPAPPESQEKKPLKPCCACPETKKARDACIIEKGEEHCGHLIEAHKECMRALGFKI | soluble |
| MGSDKIHHHHHHMALRLRKENDLWVQTFKAAGQSHLHRVEEEVFLGKCDQEPDLNLELYKDNKAVTDLITQALGSEVEKLSLQFETDVQRTYHVFEADDTAIEVCLDDGAVKTATAQSKICEVEFELKQGAVKTLIQFAQQWINRYELWLDVRSKAERGNLLALGQAASPAVHAKNLNLDKNISAEQALKKIVENCLGQFLPNMAAIADGVAEAEHIHQARVSLRRLRSALKHFSAWSDELNPVWEEQIAELFRQLGDTRDEDAIRTEILPMIVQHGSPELLLPISEQPLKDLATLFKSADTIKLILALLAFAYSEEDNQNGKGKLKKQIGKSLDKLHHQVVSNADHFTELEVTEQHRTRKKAKQLRYCIEFISSLYPRKNIQQFLKQLQPVQNTLGLYNDLFIAEDLFNKAIEHDPHFWFALGWVKAKQPYLQNQSAEALQKFKQAKTFW | not soluble |
| RRAYGKNSKWVLINYNTGQPYEQTKVTPDGLIDYDAVLAANAAASNGSEAIFALGSNSHKWFGLLSSFKKKLNSSLTLTAGYDGRYYRGDHYDKITDLLGGSYYIEDPKTKLAYHAEGQQLKVGDIVNRDYTGEIMWHGLFAQMEHSSEWIDAFVSGSINYELYRNHNYGGSKSTGYLPGVSPWKSFLPWSGKAGLSYKFAQGHNVFANGGFFTRAPLFGNIYAAGAIIPNDKANMEKVLTGEVGYGFTNHKNFEFNINGYYTKWMDRVTSKRIGNEYVYLNGVDAVHCGVEAEVSYRPIRQIDLRGMFSLGDWTWQNNVSYTSYDEAGNETGQDITYIKGLHVGDAAQMTAAVSADIELFKGFHVIGKYNFLGKNYAGFNPATRNAQQYEADGKEIVESWKLPDVGLFDLSASYNFKLGSLSTTFYFNMDNVADKRYVSDADDNIIGKKHDEASALVWYGFGRTWSTGIRVNF | not soluble |
| MAHHHHHHMTDPTRRDPTEFLRVLRRMSNTTSWQKAMIFASKGRMVGYRLTLEHYNTVLYSQSMWGRALEMIKVIRAMQQDGVQPNGATYYYIVNGMANAEHGYNYDFNINHRLEKLQHWRVALNALQACEANGFDSTDTMHNSVIVTMTIPGMNHWREALQVLKKIIDEDRQLHPNMVRFLHDCLIRNYRPREASDLLRCAAERGVKGYETAWETDVYKGKPTDAQLEASQAEAAVTDAAGTECVAGSSGALSSSTSDCKKAAHNSAQASAAATLMALQLRGDQTLPPPQMRSALQEEMERSITAERQALRPFTAGLHYTEMRSVFRPRVHRQLWYQWHQIANRYRPTASLKRRQLAPRDSPTGIPAWNRL | not soluble |
| MLKSAFILASAPLFFTLAACSGESGTQVNTASAPATQVSRNIGSTVKNRGKLICGVSGELPGFSFVGTDAKYSGIDVDVCRAVTAALFDNPDAVEFRNLNTKERFTALQTGEIDLLSRNTTWTMSRETSVGLQFAPVIFYDGQAIMVSKNSGIKSLADLKNKAICTQTGTTTEQNLADQMRKRSITYKPVVFEDVNITFATYAEGRCDGVTTDRSALISRRTTLPKPEDNIILDELLSSEPLAPAVAKGDPQWNDIVKWVVYSLVKAEELGINSQNIAQLTNSNDPDIKRFLGTEGNLGEGLGLTNDFAARIVKHVGNYGEVYDRNLGGKTKLNLPRGQNQLAIKGGLLYSPPFR | not soluble |
| MGSDKIHHHHHHMDVQVYFSKVEDPRVVGRCKHKLSDILVIALASYLCGGEDYESMHELCLERGASLRPPVELPNGCPSVDTFERVLQRIEPQSLYACLQVYGKELISDLEGKHIAIDGKRLKGSKKKTGSTHILSAWVDEVSLSLAQETVAEKRNELQAIPEVLDSLDLSGAVISINAMGTQTNIAEQIIQSEADYILSLKSNQKHLYEDVQDYFTGQYRCHRYETLEKDHGRIEKRTYTTLLASEVFEEGEYSQWQGLRSLIQVEREISSLEGETRIDRQYYISSLPPEDCQLIGQYIRGHWGIENRLHWHLDVTFREDTCRARKDYSATNLNTLRKFALAIVSGHKDKLSLRKRLFKAALNIDYLKKLLKI | not soluble |
| MKGGAGVPDLPSLDASGVRLAIVASSWHGKICDALLDGARKVAAGCGLDDPTVVRVLGAIEIPVVAQELARNHDAVVALGVVIRGQTPHFDYVCDAVTQGLTRVSLDSSTPIANGVLTTNTEEQALDRAGLPTSAEDKGAQATVAALATALTLRELRAHS | soluble |
| MGSDKIHHHHHHMPERVLNFRALFLHGLYKMDKPKAYCRLFLPSFLLLSACTVDISQPDPSATAVDAEAKTWAVKFQHQSSFTEQSIKEITAPDLKPGDLLFSSSLGVTSFGIRVFSTSSVSHVAIFLGDNNVAEATGAGVQIVSLKKAMKHSDKLFVLRVPDLTPQQATDITAFANKIKDSGYNYRGIVEFIPFMVTRQMCSLNPFSEDFRQQCVSGLAKAQLSSVGEGDKKSWFCSEFVTDAFAKAGHPLTLAQSGWISPADLMHMRIGDVSAFKPETQLQYVGHLKPGIYIKAGRFVGLTR | not soluble |
| MSLKITSVRSFLLSYPLPEPVRLPFHGGERTILKRDAMFIRVEADSGLIGYAPGPGSEQAHKAIQQTIAPFLEDRVLADPDALRVLFLQGPGIDAELAKIYCAVEIALYDLVGKARGIPISEMIGGRVRDTIRLYGSAGMYMSPEGYAAEAAAIAALGFRAYKMRPAGGPEQDLETVRQMRKAVGPDFDLMVDAHTWWRMGDSSYPADTVEQLARDMSAYHIAWLEEPLPPDDHAGYLALKQKDLVLLATGEHEPNEDRYLDLILTQAVDYIQMDVCCQGGYALGRRLFAEIARQGLSFAFHSWGTALEVMAAAHLGICWPQMIAEWLEYPCYSSPGRVGMYPFPLAAEILTEPLEIERGDLLVPRAPGLGVAVDESVIERYPWIPGPWSYFRIDSPAENRAVTSDHSVQWDPEAKEGHHHHHH | soluble |
